The target of assay [1] is Wild-type AAV2 capsid (AAV2) (UniProt P03135). Nature of the assay: A20 capsid ELISA on virus stock.
The target of assay [2] is AAV2 capsid VP3 mutant ins587 (insertion after amino acid 587, site LQRGN RQAAT) (AAV2) (UniProt P03135). The experiment in a line: A20 capsid ELISA on virus stock. Background: In an ELISA, binding on a coated surface is turned into a signal by an enzyme label.
Assay [3] concerns the target AAV2 capsid VP3 mutant ins447 (insertion after amino acid 447, site YYLSR TNTPS) (AAV2) (UniProt P03135). The experiment in a line: A20 capsid ELISA on virus stock.
Assay [4] concerns the target AAV2 capsid VP1 mutant ΔXho (deletion between the XhoI-XhoI cleavage sites of VP-1, 62 amino acids) (AAV2) (UniProt P03135). Nature of the assay: A20 capsid ELISA on virus stock.
Assay [5] addresses AAV2 capsid VP1 mutant ΔBH+L (deletion between BsrBI and HindIII, and insertion of the P1 peptide) (AAV2) (UniProt P03135). Nature of the assay: A20 capsid ELISA on virus stock.
In assay [6] the target is AAV2 capsid VP1 mutant ΔBH (deletion between BsrBI and HindIII cleavage sites of VP-1, 29 amino acids) (AAV2) (UniProt P03135). The experiment in a line: A20 capsid ELISA on virus stock.
Assay [7] addresses AAV2 capsid VP1 mutant B+L (insertion of the P1 peptide at the BsrBI cleavage site) (AAV2) (UniProt P03135). The experiment in a line: A20 capsid ELISA on virus stock.
Assay [8] concerns the target Wild-type AAV2 capsid (AAV2) (UniProt P03135). The experiment in a line: A20 capsid ELISA on CsCl-purified particles.
For assay [9], the target named is AAV2 capsid mutant I-447 (P1 peptide inserted after amino acid 447) (AAV2) (UniProt P03135). Nature of the assay: A20 capsid ELISA on CsCl-purified particles.
The target of assay [10] is AAV2 capsid mutant I-587 (P1 peptide inserted after amino acid 587) (AAV2) (UniProt P03135). Nature of the assay: A20 capsid ELISA on CsCl-purified particles.

Results on one substance are retold here after patent publication US7285381.

Take A20 monoclonal antibody: the capsid titer (ELISA with A20 MAb) amounted to 1e+11 particles/ml in [1]; 2e+10 particles/ml in [2]; 4e+10 particles/ml in assay [3]; 5e+10 particles/ml in [4]; 5e+10 particles/ml in assay [5]; 4e+09 particles/ml in assay [6]. The capsid titer (ELISA with A20 MAb) in assay [7] was 5e+09 particles/ml. Further, the titer (ELISA with A20 MAb) in [8] came out at 6e+12 particles/ml; in assay [9] it was 8e+11 particles/ml; in assay [10], 3e+12 particles/ml.
